From the supplement of paper PMC6757056
± gives the standard deviation of the averaged measurements.

B1: library; a variant is named by its letters at N, in order (parent)
chain: GCUGUCACCGGUGUAUUACCCUAGUGGUCGACCGGUCUGAUGAGUCUNNNNNNAGACGAAACAGC

Experiments:
hypoxanthine [1] = variants of: B1; experiment: FACS-Seq fitted mean relative fluorescence mCherry/BFP without ligand (log10 relative fluorescence); ligand: hypoxanthine (xanthine aptamer); higher = higher reporter protein expression; details: HEK293T, ligand present: no
In short: (§1)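 Lentivirally transduced HEK293T libraries carried an mCherry reporter with the ribozyme switch and an EF1α-BFP marker. Transduced cells were enriched, then incubated with or without ligand for 48 h and sorted into 6 bins by mCherry/BFP. Genomic DNA from each bin was PCR-amplified, barcoded and sequenced on MiSeq. Fluorescence was the fitted normal mean of log10(mCherry/BFP) bin counts, scaled to five spiked-in control ribozymes.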

hypoxanthine [2] = variants of: B1; experiment: normalized RNA/DNA level with ligand (relative to sTRSVctl = 100) (log10 (% of sTRSVctl)); ligand: hypoxanthine (xanthine aptamer); higher = less ribozyme self-cleavage, higher mRNA level; details: ligand concentration (+) RNA-Seq: 5 mM, HEK293T, reporter: mCherry (pCS4076), ligand present: yes
In short: (§2)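 Library plasmids carrying ribozyme switches linked to mCherry, or to eGFP in some ligand experiments, were transfected into HEK293T at 4 µg per 6-well well, with any ligand added 1 h earlier. Seventy-two hours on, total RNA was extracted with EDTA and reverse-transcribed, amplified, barcoded and sequenced. RNA level was RNA over DNA reads normalized to a spiked-in non-cleaving sequence or to the top sequences, then scaled and log-transformed. The top set was 25 sequences, the transform was ×100 and log10, and sequences needed ≥100 DNA reads.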

hypoxanthine [3] = variants of: B1; experiment: normalized RNA/DNA level without ligand (relative to sTRSVctl = 100) (log10 (% of sTRSVctl)); ligand: hypoxanthine (xanthine aptamer); higher = less ribozyme self-cleavage, higher mRNA level; details: HEK293T, reporter: mCherry (pCS4076), ligand present: no
In short: as §2

hypoxanthine [4] = variants of: B1; experiment: FACS-Seq fitted mean relative fluorescence mCherry/BFP with ligand (log10 relative fluorescence); ligand: hypoxanthine (xanthine aptamer); ligand concentration (+) FACS-Seq: 5 mM; higher = higher reporter protein expression; details: HEK293T, ligand present: yes
In short: as §1

GCUGUCACCGGUGUAUUACCCUAGUGGUCGACCGGUCUGAUGAGUCUAGUGAUAGACGAAACAGC [AGUGAU]
FACS-Seq fitted mean (log10) (hypoxanthine [1]): 0.509 ± 0.14 | normalized RNA/DNA level with ligand (log10) (hypoxanthine [2]): 1.91 ± 0.065 | normalized RNA/DNA level without ligand (log10) (hypoxanthine [3]): 1.77 ± 0.047 | FACS-Seq fitted mean (log10) (hypoxanthine [4]): 0.534 ± 0.019

GCUGUCACCGGUGUAUUACCCUAGUGGUCGACCGGUCUGAUGAGUCUGGUGACAGACGAAACAGC [GGUGAC]
FACS-Seq fitted mean (log10) (hypoxanthine [1]): 0.507 ± 0.018 | normalized RNA/DNA level with ligand (log10) (hypoxanthine [2]): 1.8808 ± 0.00054 | normalized RNA/DNA level without ligand (log10) (hypoxanthine [3]): 1.798 ± 0.0044 | FACS-Seq fitted mean (log10) (hypoxanthine [4]): 0.543 ± 0.1

GCUGUCACCGGUGUAUUACCCUAGUGGUCGACCGGUCUGAUGAGUCUGGUGAUAGACGAAACAGC [GGUGAU]
FACS-Seq fitted mean (log10) (hypoxanthine [1]): 0.445 ± 0.047 | normalized RNA/DNA level with ligand (log10) (hypoxanthine [2]): 1.93 ± 0.039 | normalized RNA/DNA level without ligand (log10) (hypoxanthine [3]): 1.763 ± 0.012 | FACS-Seq fitted mean (log10) (hypoxanthine [4]): 0.5584 ± 0.0013

GCUGUCACCGGUGUAUUACCCUAGUGGUCGACCGGUCUGAUGAGUCUGGUGAGAGACGAAACAGC [GGUGAG]
FACS-Seq fitted mean (log10) (hypoxanthine [1]): -0.242 ± 0.013 | normalized RNA/DNA level with ligand (log10) (hypoxanthine [2]): 1.77 ± 0.063 | normalized RNA/DNA level without ligand (log10) (hypoxanthine [3]): 1.29 ± 0.086 | FACS-Seq fitted mean (log10) (hypoxanthine [4]): 0.303 ± 0.045

GCUGUCACCGGUGUAUUACCCUAGUGGUCGACCGGUCUGAUGAGUCUAGUCUGAGACGAAACAGC [AGUCUG]
FACS-Seq fitted mean (log10) (hypoxanthine [1]): 0.186 ± 0.024 | normalized RNA/DNA level with ligand (log10) (hypoxanthine [2]): 1.9 ± 0.066 | normalized RNA/DNA level without ligand (log10) (hypoxanthine [3]): 1.54 ± 0.029 | FACS-Seq fitted mean (log10) (hypoxanthine [4]): 0.414 ± 0.053

GCUGUCACCGGUGUAUUACCCUAGUGGUCGACCGGUCUGAUGAGUCUUGUGCGAGACGAAACAGC [UGUGCG]
FACS-Seq fitted mean (log10) (hypoxanthine [1]): -0.404 ± 0.074 | normalized RNA/DNA level with ligand (log10) (hypoxanthine [2]): 1.933 ± 0.015 | normalized RNA/DNA level without ligand (log10) (hypoxanthine [3]): 1.684 ± 0.014 | FACS-Seq fitted mean (log10) (hypoxanthine [4]): 0.178 ± 0.0062

GCUGUCACCGGUGUAUUACCCUAGUGGUCGACCGGUCUGAUGAGUCUUGUCUAAGACGAAACAGC [UGUCUA]
FACS-Seq fitted mean (log10) (hypoxanthine [1]): -0.725 ± 0.058 | normalized RNA/DNA level with ligand (log10) (hypoxanthine [2]): 1.95 ± 0.067 | normalized RNA/DNA level without ligand (log10) (hypoxanthine [3]): 1.92 ± 0.02 | FACS-Seq fitted mean (log10) (hypoxanthine [4]): -0.723 ± 0.08

GCUGUCACCGGUGUAUUACCCUAGUGGUCGACCGGUCUGAUGAGUCUUGUCGGAGACGAAACAGC [UGUCGG]
FACS-Seq fitted mean (log10) (hypoxanthine [1]): 0.0812 ± 0.15 | normalized RNA/DNA level with ligand (log10) (hypoxanthine [2]): 1.9 ± 0.04 | normalized RNA/DNA level without ligand (log10) (hypoxanthine [3]): 1.543 ± 0.01 | FACS-Seq fitted mean (log10) (hypoxanthine [4]): 0.151 ± 0.019

GCUGUCACCGGUGUAUUACCCUAGUGGUCGACCGGUCUGAUGAGUCUUGUCGUAGACGAAACAGC [UGUCGU]
FACS-Seq fitted mean (log10) (hypoxanthine [1]): 0.313 ± 0.02 | normalized RNA/DNA level with ligand (log10) (hypoxanthine [2]): 1.91 ± 0.036 | normalized RNA/DNA level without ligand (log10) (hypoxanthine [3]): 1.61 ± 0.041 | FACS-Seq fitted mean (log10) (hypoxanthine [4]): 0.591 ± 0.008

GCUGUCACCGGUGUAUUACCCUAGUGGUCGACCGGUCUGAUGAGUCUGGUGCCAGACGAAACAGC [GGUGCC]
FACS-Seq fitted mean (log10) (hypoxanthine [1]): 0.798 ± 0.026 | normalized RNA/DNA level with ligand (log10) (hypoxanthine [2]): 2.009 ± 0.0084 | normalized RNA/DNA level without ligand (log10) (hypoxanthine [3]): 1.97 ± 0.04 | FACS-Seq fitted mean (log10) (hypoxanthine [4]): 0.76 ± 0.035

GCUGUCACCGGUGUAUUACCCUAGUGGUCGACCGGUCUGAUGAGUCUGGUGCUAGACGAAACAGC [GGUGCU]
FACS-Seq fitted mean (log10) (hypoxanthine [1]): 0.444 ± 0.03 | normalized RNA/DNA level with ligand (log10) (hypoxanthine [2]): 2.022 ± 0.015 | normalized RNA/DNA level without ligand (log10) (hypoxanthine [3]): 1.977 ± 0.015 | FACS-Seq fitted mean (log10) (hypoxanthine [4]): 0.475 ± 0.041

GCUGUCACCGGUGUAUUACCCUAGUGGUCGACCGGUCUGAUGAGUCUGGUGCGAGACGAAACAGC [GGUGCG]
FACS-Seq fitted mean (log10) (hypoxanthine [1]): 0.452 ± 0.027 | normalized RNA/DNA level with ligand (log10) (hypoxanthine [2]): 1.91 ± 0.056 | normalized RNA/DNA level without ligand (log10) (hypoxanthine [3]): 1.58 ± 0.094 | FACS-Seq fitted mean (log10) (hypoxanthine [4]): 0.656 ± 0.018

GCUGUCACCGGUGUAUUACCCUAGUGGUCGACCGGUCUGAUGAGUCUCGUGAAAGACGAAACAGC [CGUGAA]
FACS-Seq fitted mean (log10) (hypoxanthine [1]): -0.0193 ± 0.0065 | normalized RNA/DNA level with ligand (log10) (hypoxanthine [2]): 1.87 ± 0.051 | normalized RNA/DNA level without ligand (log10) (hypoxanthine [3]): 1.6 ± 0.029 | FACS-Seq fitted mean (log10) (hypoxanthine [4]): 0.148 ± 0.033

GCUGUCACCGGUGUAUUACCCUAGUGGUCGACCGGUCUGAUGAGUCUAGUCGAAGACGAAACAGC [AGUCGA]
FACS-Seq fitted mean (log10) (hypoxanthine [1]): 0.423 ± 0.022 | normalized RNA/DNA level with ligand (log10) (hypoxanthine [2]): 1.95 ± 0.035 | normalized RNA/DNA level without ligand (log10) (hypoxanthine [3]): 1.61 ± 0.058 | FACS-Seq fitted mean (log10) (hypoxanthine [4]): 0.654 ± 0.0092

GCUGUCACCGGUGUAUUACCCUAGUGGUCGACCGGUCUGAUGAGUCUAGUCGGAGACGAAACAGC [AGUCGG]
FACS-Seq fitted mean (log10) (hypoxanthine [1]): 0.0517 ± 0.00086 | normalized RNA/DNA level with ligand (log10) (hypoxanthine [2]): 1.85 ± 0.049 | normalized RNA/DNA level without ligand (log10) (hypoxanthine [3]): 1.48 ± 0.085 | FACS-Seq fitted mean (log10) (hypoxanthine [4]): 0.38 ± 0.078

GCUGUCACCGGUGUAUUACCCUAGUGGUCGACCGGUCUGAUGAGUCUAGUCGUAGACGAAACAGC [AGUCGU]
FACS-Seq fitted mean (log10) (hypoxanthine [1]): 0.577 ± 0.17 | normalized RNA/DNA level with ligand (log10) (hypoxanthine [2]): 1.903 ± 0.013 | normalized RNA/DNA level without ligand (log10) (hypoxanthine [3]): 1.68 ± 0.029 | FACS-Seq fitted mean (log10) (hypoxanthine [4]): 0.561 ± 0.15

GCUGUCACCGGUGUAUUACCCUAGUGGUCGACCGGUCUGAUGAGUCUUGUGACAGACGAAACAGC [UGUGAC]
FACS-Seq fitted mean (log10) (hypoxanthine [1]): 0.481 ± 0.0063 | normalized RNA/DNA level with ligand (log10) (hypoxanthine [2]): 1.94 ± 0.022 | normalized RNA/DNA level without ligand (log10) (hypoxanthine [3]): 1.839 ± 0.0072 | FACS-Seq fitted mean (log10) (hypoxanthine [4]): 0.42 ± 0.077

GCUGUCACCGGUGUAUUACCCUAGUGGUCGACCGGUCUGAUGAGUCUGGUCUAAGACGAAACAGC [GGUCUA]
FACS-Seq fitted mean (log10) (hypoxanthine [1]): 0.4701 ± 0.0031 | normalized RNA/DNA level with ligand (log10) (hypoxanthine [2]): 1.896 ± 0.0023 | normalized RNA/DNA level without ligand (log10) (hypoxanthine [3]): 1.9 ± 0.022 | FACS-Seq fitted mean (log10) (hypoxanthine [4]): 0.586 ± 0.022

GCUGUCACCGGUGUAUUACCCUAGUGGUCGACCGGUCUGAUGAGUCUAGUCCUAGACGAAACAGC [AGUCCU]
FACS-Seq fitted mean (log10) (hypoxanthine [1]): 0.767 ± 0.076 | normalized RNA/DNA level with ligand (log10) (hypoxanthine [2]): 1.92 ± 0.085 | normalized RNA/DNA level without ligand (log10) (hypoxanthine [3]): 1.895 ± 0.015 | FACS-Seq fitted mean (log10) (hypoxanthine [4]): 0.719 ± 0.034

GCUGUCACCGGUGUAUUACCCUAGUGGUCGACCGGUCUGAUGAGUCUCGUGCUAGACGAAACAGC [CGUGCU]
FACS-Seq fitted mean (log10) (hypoxanthine [1]): 0.599 ± 0.1 | normalized RNA/DNA level with ligand (log10) (hypoxanthine [2]): 1.909 ± 0.0056 | normalized RNA/DNA level without ligand (log10) (hypoxanthine [3]): 1.899 ± 0.0073 | FACS-Seq fitted mean (log10) (hypoxanthine [4]): 0.518 ± 0.04

GCUGUCACCGGUGUAUUACCCUAGUGGUCGACCGGUCUGAUGAGUCUCGUGCAAGACGAAACAGC [CGUGCA]
FACS-Seq fitted mean (log10) (hypoxanthine [1]): 0.438 ± 0.026 | normalized RNA/DNA level with ligand (log10) (hypoxanthine [2]): 1.932 ± 0.0054 | normalized RNA/DNA level without ligand (log10) (hypoxanthine [3]): 1.72 ± 0.03 | FACS-Seq fitted mean (log10) (hypoxanthine [4]): 0.662 ± 0.033
